In IntAct's records for PubMed 31515488:

B1: Four and a half LIM domains protein 2 (Homo sapiens), Q14192 (parent)
chain: MTERFDCHHCNESLFGKKYILREESPYCVVCFETLFANTCEECGKPIGCDCKDLSYKDRHWHEACFHCSQCRNSLVDKPFAAKEDQLLCTDCYSNEYSSKCQECKKTIMPGTRKMEYKGSSWHETCFICHRCQQPIGTKSFIPKDNQNFCVPCYEKQHAMQCVQCKKPITTGGVTYREQPWHKECFVCTACRKQLSGQRFTARDDFAYCLNCFCDLYAKKCAGCTNPISGLGGTKYISFEERQWHNDCFNCKKCSLSLVGRGFLTERDDILCPDCGKDI
partner: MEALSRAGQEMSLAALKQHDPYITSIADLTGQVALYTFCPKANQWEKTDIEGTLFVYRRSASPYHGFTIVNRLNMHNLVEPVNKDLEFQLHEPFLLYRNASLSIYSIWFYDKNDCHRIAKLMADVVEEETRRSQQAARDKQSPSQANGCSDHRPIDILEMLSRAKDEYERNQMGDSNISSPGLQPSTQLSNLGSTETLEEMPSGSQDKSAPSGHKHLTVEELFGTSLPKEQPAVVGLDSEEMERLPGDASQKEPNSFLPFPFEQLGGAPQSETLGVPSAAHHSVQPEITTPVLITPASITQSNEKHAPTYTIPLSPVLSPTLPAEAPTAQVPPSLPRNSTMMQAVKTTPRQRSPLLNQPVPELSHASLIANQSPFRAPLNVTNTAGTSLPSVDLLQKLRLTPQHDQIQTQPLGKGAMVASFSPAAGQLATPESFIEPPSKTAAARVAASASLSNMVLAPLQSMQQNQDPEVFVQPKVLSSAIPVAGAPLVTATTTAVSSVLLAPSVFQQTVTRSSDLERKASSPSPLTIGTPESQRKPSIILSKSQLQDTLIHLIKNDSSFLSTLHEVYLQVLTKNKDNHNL
B2: Tuftelin-interacting protein 11 (Homo sapiens), Q9UBB9 (parent)
chain: MSLSHLYRDGEGRIDDDDDERENFEITDWDLQNEFNPNRQRHWQTKEEATYGVWAERDSDDERPSFGGKRARDYSAPVNFISAGLKKGAAEEAELEDSDDEEKPVKQDDFPKDFGPRKLKTGGNFKPSQKGFAGGTKSFMDFGSWERHTKGIGQKLLQKMGYVPGRGLGKNAQGIINPIEAKQRKGKGAVGAYGSERTTQSMQDFPVVDSEEEAEEEFQKELSQWRKDPSGSKKKPKYSYKTVEELKAKGRISKKLTAPQKELSQVKVIDMTGREQKVYYSYSQISHKHNVPDDGLPLQSQQLPQSGKEAKAPGFALPELEHNLQLLIDLTEQEIIQNDRQLQYERDMVVNLFHELEKMTEVLDHEERVISNLSKVLEMVEECERRMQPDCSNPLTLDECARIFETLQDKYYEEYRMSDRVDLAVAIVYPLMKEYFKEWDPLKDCTYGTEIISKWKSLLENDQLLSHGGQDLSADAFHRLIWEVWMPFVRNIVTQWQPRNCDPMVDFLDSWVHIIPVWILDNILDQLIFPKLQKEVENWNPLTDTVPIHSWIHPWLPLMQARLEPLYSPIRSKLSSALQKWHPSDSSAKLILQPWKDVFTPGSWEAFMVKNIVPKLGMCLGELVINPHQQHMDAFYWVIDWEGMISVSSLVGLLEKHFFPKWLQVLCSWLSNSPNYEEITKWYLGWKSMFSDQVLAHPSVKDKFNEALDIMNRAVSSNVGAYMQPGARENIAYLTHTERRKDFQYEAMQERREAENMAQRGIGVAASSVPMNFKDLIETKAEEHNIVFMPVIGKRHEGKQLYTFGRIVIYIDRGVVFVQGEKTWVPTSLQSLIDMAK
partner: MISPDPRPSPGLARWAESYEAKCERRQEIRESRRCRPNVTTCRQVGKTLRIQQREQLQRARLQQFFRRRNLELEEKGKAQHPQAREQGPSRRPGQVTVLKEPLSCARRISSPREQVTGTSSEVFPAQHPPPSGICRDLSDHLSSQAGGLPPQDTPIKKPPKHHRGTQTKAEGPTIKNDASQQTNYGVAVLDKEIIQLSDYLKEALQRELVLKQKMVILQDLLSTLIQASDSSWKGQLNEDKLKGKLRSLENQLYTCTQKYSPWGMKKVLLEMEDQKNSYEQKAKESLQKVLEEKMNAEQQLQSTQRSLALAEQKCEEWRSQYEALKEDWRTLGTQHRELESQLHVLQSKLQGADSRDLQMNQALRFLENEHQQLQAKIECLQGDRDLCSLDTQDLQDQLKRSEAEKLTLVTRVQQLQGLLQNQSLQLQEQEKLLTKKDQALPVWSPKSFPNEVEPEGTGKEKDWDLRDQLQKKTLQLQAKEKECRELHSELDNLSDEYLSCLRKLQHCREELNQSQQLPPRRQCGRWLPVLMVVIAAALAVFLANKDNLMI
B3: Protein FAM168A (Homo sapiens), Q92567 (parent)
chain: MNPVYSPVQPGAPYGNPKNMAYTGYPTAYPAAAPAYNPSLYPTNSPSYAPEFQFLHSAYATLLMKQAWPQNSSSCGTEGTFHLPVDTGTENRTYQASSAAFRYTAGTPYKVPPTQSNTAPPPYSPSPNPYQTAMYPIRSAYPQQNLYAQGAYYTQPVYAAQPHVIHHTTVVQPNSIPSAIYPAPVAAPRTNGVAMGMVAGTTMAMSAGTLLTTPQHTAIGAHPVSMPTYRAQGTPAYSYVPPHW
partner: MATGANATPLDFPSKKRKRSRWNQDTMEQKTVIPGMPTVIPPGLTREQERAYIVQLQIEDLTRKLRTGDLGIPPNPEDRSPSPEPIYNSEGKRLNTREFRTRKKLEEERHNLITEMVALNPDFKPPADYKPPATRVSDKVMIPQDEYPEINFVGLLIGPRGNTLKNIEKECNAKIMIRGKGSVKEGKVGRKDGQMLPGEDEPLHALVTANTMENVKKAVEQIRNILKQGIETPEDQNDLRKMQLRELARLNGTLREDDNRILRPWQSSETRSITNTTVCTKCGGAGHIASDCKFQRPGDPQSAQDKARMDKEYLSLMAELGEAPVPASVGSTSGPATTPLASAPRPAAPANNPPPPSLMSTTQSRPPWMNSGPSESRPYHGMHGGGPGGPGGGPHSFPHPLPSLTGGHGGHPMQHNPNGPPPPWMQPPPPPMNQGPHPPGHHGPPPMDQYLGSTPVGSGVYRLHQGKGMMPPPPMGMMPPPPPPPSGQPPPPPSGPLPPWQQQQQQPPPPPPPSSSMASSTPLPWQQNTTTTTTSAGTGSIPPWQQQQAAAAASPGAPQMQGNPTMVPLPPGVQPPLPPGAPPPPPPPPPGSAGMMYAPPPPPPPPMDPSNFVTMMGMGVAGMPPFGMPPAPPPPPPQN
B4: Programmed cell death 6-interacting protein (Homo sapiens), Q8WUM4 (parent)
chain: MATFISVQLKKTSEVDLAKPLVKFIQQTYPSGGEEQAQYCRAAEELSKLRRAAVGRPLDKHEGALETLLRYYDQICSIEPKFPFSENQICLTFTWKDAFDKGSLFGGSVKLALASLGYEKSCVLFNCAALASQIAAEQNLDNDEGLKIAAKHYQFASGAFLHIKETVLSALSREPTVDISPDTVGTLSLIMLAQAQEVFFLKATRDKMKDAIIAKLANQAADYFGDAFKQCQYKDTLPKEVFPVLAAKHCIMQANAEYHQSILAKQQKKFGEEIARLQHAAELIKTVASRYDEYVNVKDFSDKINRALAAAKKDNDFIYHDRVPDLKDLDPIGKATLVKSTPVNVPISQKFTDLFEKMVPVSVQQSLAAYNQRKADLVNRSIAQMREATTLANGVLASLNLPAAIEDVSGDTVPQSILTKSRSVIEQGGIQTVDQLIKELPELLQRNREILDESLRLLDEEEATDNDLRAKFKERWQRTPSNELYKPLRAEGTNFRTVLDKAVQADGQVKECYQSHRDTIVLLCKPEPELNAAIPSANPAKTMQGSEVVNVLKSLLSNLDEVKKEREGLENDLKSVNFDMTSKFLTALAQDGVINEEALSVTELDRVYGGLTTKVQESLKKQEGLLKNIQVSHQEFSKMKQSNNEANLREEVLKNLATAYDNFVELVANLKEGTKFYNELTEILVRFQNKCSDIVFARKTERDELLKDLQQSIAREPSAPSIPTPAYQSSPAGGHAPTPPTPAPRTMPPTKPQPPARPPPPVLPANRAPSATAPSPVGAGTAAPAPSQTPGSAPPPQAQGPPYPTYPGYPGYCQMPMPMGYNPYAYGQYNMPYPPVYHQSPGQAPYPGPQQPSYPFPQPPQQSYYPQQ
partner: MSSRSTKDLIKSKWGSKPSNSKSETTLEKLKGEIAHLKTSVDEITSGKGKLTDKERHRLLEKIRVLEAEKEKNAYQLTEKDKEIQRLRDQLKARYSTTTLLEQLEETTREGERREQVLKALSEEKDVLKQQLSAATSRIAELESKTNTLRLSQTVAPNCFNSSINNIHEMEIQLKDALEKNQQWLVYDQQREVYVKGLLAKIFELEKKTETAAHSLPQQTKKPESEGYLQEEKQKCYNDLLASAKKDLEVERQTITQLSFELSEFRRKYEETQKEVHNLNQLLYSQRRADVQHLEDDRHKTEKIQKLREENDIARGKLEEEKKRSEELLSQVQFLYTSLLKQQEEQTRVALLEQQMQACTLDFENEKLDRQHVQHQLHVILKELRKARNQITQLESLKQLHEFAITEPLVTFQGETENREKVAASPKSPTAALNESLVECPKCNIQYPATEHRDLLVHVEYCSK

Variants of: B1
Details: with dcp1a_human DCP1A

Variant	effect of a mutation on the interaction
A37S	with no effect

Variants of: B2
Details: with TRAF3IP3, Q9Y228

Variant	effect of a mutation on the interaction
M140V	with no effect

Variants of: B3
Details: with sf01_human SF1, Q15637

Variant	effect of a mutation on the interaction
P122R	disrupting interaction strength

Variants of: B4
Details: with cep55_human CEP55, Q53EZ4

Variant	effect of a mutation on the interaction
S730L	with no effect
A309T	with no effect
G778A	with no effect
